According to patent US20190153066A1 (IMMATICS BIOTECHNOLOGIES, published 2019):
No end group written: not given here.

Biological target: T1, HLA-A*02:01 (peptide-receptive MHC class I molecule after UV-ligand exchange) (human)
T1 construct: monomers captured on streptavidin-coated plates; also called peptide-receptive MHC molecules; MHC monomers
Assay: UV-ligand exchange, anti-b2m ELISA; peptide exchange yield grade (>10% = +; >20% = ++; >50 = +++; >75% = ++++)
From the text: Candidate peptides for T cell based therapies according to the present invention were further tested for their MHC binding capacity (affinity). The individual peptide-MHC complexes were produced by UV-ligand exchange, where a UV-sensitive peptide is cleaved upon UV-irradiation, and exchanged with the peptide of interest as analyzed. Only peptide candidates that can effectively bind and stabilize the peptide-receptive MHC molecules prevent dissociation of the MHC complexes. To determine the yield of the exchange reaction, an ELISA was performed based on the detection of the light chain (β2m) of stabilized MHC complexes. The assay was performed as generally described in Rodenko et al. (Rodenko et al., 2006).
96 well MAXISorp plates (NUNC) were coated over night with 2 ug/ml streptavidin in PBS at room temperature, washed 4× and blocked for1 h at 37° C. in 2% BSA containing blocking buffer. Refolded HLA-A*02:01/MLA-001 monomers served as standards, covering the range of 15-500 ng/ml. Peptide-MHC monomers of the UV-exchange reaction were diluted 100-fold in blocking buffer. Samples were incubated for 1 h at 37° C., washed four times, incubated with 2 ug/ml HRP conjugated anti-β2 m for 1 h at 37° C., washed again and detected with TMB solution that is stopped with […]. Absorption was measured at 450 nm. Candidate peptides that show a high exchange yield (preferably higher than 50%, most preferred higher than 75%) are generally preferred for a generation and production of antibodies or fragments thereof, and/or T cell receptors or fragments thereof, as they show sufficient avidity to the MHC molecules and prevent dissociation of the MHC complexes.

Binder | peptide exchange yield
YGIEFVVGV [peptide YGIEFVVGV (SEQ ID NO: 14)] | > 75%
VLYDNTQLQL [peptide VLYDNTQLQL (SEQ ID NO: 17)] | > 75%
AVMTDLPVI [peptide AVMTDLPVI (SEQ ID NO: 16)] | > 75%
YASGSSASL [peptide YASGSSASL (SEQ ID NO: 28)] | 10 to 20%
TAQTLVRIL [peptide TAQTLVRIL (SEQ ID NO: 26)] | 10 to 20%
SAFPFPVTVSL [peptide SAFPFPVTVSL (SEQ ID NO: 10)] | 20 to 50%
FASEVSNVL [peptide FASEVSNVL (SEQ ID NO: 29)] | > 75%
LLLSDPDKVTI [peptide LLLSDPDKVTI (SEQ ID NO: 7)] | > 75%
SLLSELLGV [peptide SLLSELLGV (SEQ ID NO: 23)] | > 75%
FASGLIHRV [peptide FASGLIHRV (SEQ ID NO: 30)] | 50 to 75%
TAYPQVVVV [peptide TAYPQVVVV (SEQ ID NO: 19)] | 20 to 50%
ISAPLVKTL [peptide ISAPLVKTL (SEQ ID NO: 24)] | 10 to 20%
LLLPLLPPLSPS (also: trifluoroacetate salt) [peptide LLLPLLPPLSPS (SEQ ID NO: 6)] | > 75%
LSASLVRIL [peptide LSASLVRIL (SEQ ID NO: 8)] | 10 to 20%
TILPGNLQSW [peptide TILPGNLQSW (SEQ ID NO: 12)] | 10 to 20%
SVIDSLPEI [peptide SVIDSLPEI (SEQ ID NO: 15)] | > 75%
EMDSTVITV [peptide EMDSTVITV (SEQ ID NO: 3)] | 50 to 75%
VLQDELPQL [peptide VLQDELPQL (SEQ ID NO: 20)] | > 75%
IAIPFLIKL [peptide IAIPFLIKL (SEQ ID NO: 31)] | > 75%
SAFGFPVIL [peptide SAFGFPVIL (SEQ ID NO: 22)] | 20 to 50%
RLAKLTAAV [peptide RLAKLTAAV (SEQ ID NO: 9)] | > 75%

More lines, now with the values ahead:

peptide exchange yield | Binder
50 to 75% | SLSPDLSQV [peptide SLSPDLSQV (SEQ ID NO: 18)]
50 to 75% | ALAEQVQKA [peptide ALAEQVQKA (SEQ ID NO: 27)]
> 75% | SIIDFTVTM [peptide SIIDFTVTM (SEQ ID NO: 11)]
> 75% | GLIDEVMVLL [peptide GLIDEVMVLL (SEQ ID NO: 5)]
50 to 75% | AAYPEIVAV [peptide AAYPEIVAV (SEQ ID NO: 2)]
> 75% | FLLEAQNYL [peptide FLLEAQNYL (SEQ ID NO: 4)]
50 to 75% | IAFPTSISV [peptide IAFPTSISV (SEQ ID NO: 21)]
> 75% | VLPRAFTYV [peptide VLPRAFTYV (SEQ ID NO: 13)]
50 to 75% | YAAEIASAL (also: trifluoroacetate salt) [peptide YAAEIASAL (SEQ ID NO: 1)]
> 75% | YVISQVFEI [peptide YVISQVFEI (SEQ ID NO: 32)]
> 75% | NLSETASTMAL [peptide NLSETASTMAL (SEQ ID NO: 25)]
